Assay [1] addresses T1, IsaA (immunodominant structure IsaA of Staphylococcus aureus) (Staphylococcus aureus, UniProt P99160 30-233, limits assumed).
T1 construct: The ELISA text calls it soluble recombinant IsaA; also called IsaA antigen; soluble recombinant IsaA
T1 sequence (looked up): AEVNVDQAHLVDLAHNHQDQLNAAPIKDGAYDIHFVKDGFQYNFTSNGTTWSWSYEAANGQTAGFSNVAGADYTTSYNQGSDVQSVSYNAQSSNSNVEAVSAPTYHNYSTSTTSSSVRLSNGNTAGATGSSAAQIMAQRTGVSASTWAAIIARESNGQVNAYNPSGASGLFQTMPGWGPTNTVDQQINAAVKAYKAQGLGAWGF
The assay can be described thus: SPR (BIACORE 2000), UK66-2 captured via anti-Fab antibody, IsaA as analyte, 25 C, 1:1 Langmuir fit. (In general: SPR reads the build-up and loss of mass on a sensor chip optically.)

In assay [2] the target is T1, IsaA (immunodominant structure IsaA of …). The assay can be described thus: SPR (BIACORE 2000), UK66-2 captured via anti-Fab antibody, IsaA as analyte, 25 C, 1:1 Langmuir fit, two independent measurements.

B1: antibody UK66-2 (antibody, V domains shown)
VH: EVQLLESGGGLVQPGGSLRLSCAASGFTFSNYYMSWVRQAPGKGLEWVSDINGNGGSTYYPDTVKGRFTISRDNSKNTLYLQMNSLRAEDTAVYYCVRRGGYYALDYWGQGTTVTVSS
VL: DVVMTQTPLSLSVTPGQPASISCRSSQSLVHINGNTYLHWYLQKPGQSPQLLIYRVSNRFSGVPDRFSGSGSGTDFTLKISRVEAEDVGVYYCSQSTHVPWTFGGGTKLELKR
notes: In the SPR assay it was captured by an anti-Fab antibody; also called anti-IsaA antibody UK66-2
The koff is the rate constant with which the complex falls apart. A higher koff goes with fast dissociation. A word on the kon: it is the second-order rate constant of association. Read a low kon as slower complex formation. A word on the Kd: it is the concentration at which binding is half-saturated. High values mean a looser complex, low ones a tighter complex. In assay [1], B1 gave a koff of 0.0018 s⁻¹ and a kon of 370000 M⁻¹ s⁻¹. Besides, the affinity in assay [2], expressed as Kd, was 4.8 nM.

For the origin of these results see US20140234339A1 (JULIUS MAXIMILIANS UNIVERSIT T W RZBURG, published 2014).
